Assay results published in patent publication US7897569B2, “Use of HMGB fragments as anti-inflammatory agents” (The Feinstein Institute for Medical Research, priority 2001, dated 2011).

Experiments:
RAW 264.7 cells = experiment: TNF release from RAW 264.7 cells (L929 cytotoxicity bioassay); assay type: cell-based, murine; settings: for TNF release: 1 μg/ml protein, RAW 264.7 cells
Procedure: Murine macrophage-like RAW 264.7 cells (American Type Culture Collection, Rockville, Md.) were cultured in RPMI 1640 medium (Life Technologies, Grand Island N.Y.) supplemented with 10% fetal bovine serum (Gemini, Catabasas, Calif.), penicillin and streptomycin (Life Technologies) and were used at 90% confluence in serum-free Opti-MEM I medium (Life Technologies, Grand Island, N.Y.). […] Polymyxin B was not used in experiments of synthetic peptide studies.
TNF release was measured by a standard murine fibroblast L929 (ATCC, American Type Culture Collection, Rockville, Md.) cytotoxicity bioassay (Bianchi et al., Journal of Experimental Medicine 183:927-936, 1996) with the minimum detectable concentration of 30 pg/ml. Recombinant mouse TNF was obtained from R&D system Inc., (Minneapolis, Minn.). Murine fibroblast L929 cells (ATCC) were cultured in DMEM (Life Technologies, Grand Island, N.Y.) supplemented with 10% fetal bovine serum (Gemini, Catabasas, Calif.), penicillin (50 units/ml) and streptomycin (50 μg/ml) (Life Technologies) in a humidified incubator with 5% CO2.
The effect of the mutants on TNF release from Murine macrophage-like RAW 264.7 cells (ATCC) was carried out as follows. RAW 264.7 cells were cultured in RPMI 1640 medium (Life Technologies, Grand Island N.Y.) supplemented with 10% fetal bovine serum (Gemini, Catabasas, Calif.), penicillin and streptomycin (Life Technologies). Polymyxin (Sigma, St. Louis, Mo.) was added at 100 units/ml to suppress the activity of any contaminating LPS. Cells were incubated with 1 μg/ml of full length (wild-type) HMGB1 and each HMGB1 mutant protein in Opti-MEM I medium for 8 hours, and conditioned supernatants (containing TNF which had been released from the cells) were collected and TNF released from the cells was measured by a standard murine fibroblast L929 (ATCC) cytotoxicity bioassay (Bianchi et al., supra) with the minimum detectable concentration of 30 pg/ml. Recombinant mouse TNF was obtained from R & D Systems Inc., (Minneapolis, Minn.) and used as control in these experiments. Data in FIG. 1 are all presented as mean+SEM unless otherwise indicated. (N=6-10).
To further examine the effect of HMGB1 B box on cytokine production, varying amounts of HMGB1 B box were evaluated for the effects on TNF, IL-1 B, and IL-6 production in murine macrophage-like RAW 264.7 cells. Conditioned media were harvested and measured for TNF, IL-1β and IL-6 levels. TNF levels were measured as described herein, and IL-1β and IL-6 levels were measured using the mouse IL-1β and IL-6 enzyme-linked immunosorbent assay (ELISA) kits (R&D System Inc., Minneapolis, Minn.) and N>5 for all experiments.
The kinetics of B box-induced TNF release was also examined. TNF release and TNF mRNA expression was measured in RAW 264.7 cells induced by B box polypeptide or GST tag polypeptide only used as a control (vector) (10 μg/ml) for 0 to 48 hours. Supernatants were analyzed for TNF protein levels by an L929 cytotoxicity assay (N=3-5) as described herein. For mRNA measurement, cells were plated in 100 mm plate and treated in Opti-MEM I medium containing B box polypeptide or the vector alone for 0, 4, 8, or 24 hours, as indicated in FIG. 2D. The vector only sample was assayed at the 4 hour time point. Cells were scraped off the plate and total RNA was isolated by RNAzol B method in accordance with the manufacturer's instructions (Tel-Test “B”, Inc., Friendswood, Tex.). TNF (287 bp) was measured by RNase protection assay (Ambion, Austin, Tex.). Equal loading and the integrity of RNA was verified by ethidium bromide staining of the RNA sample on agarose-formaldehyde gel. […] TNF mRNA expression was maximal at 4 hours and decreased at 8 and 24 hours. […] A similar study was carried out measuring TNF protein released from RAW 264.7 cells 0, 4, 8, 24, 32 or 48 hours after administration of B box or vector only (GST tag), using the L929 cytotoxicity assay described herein. […] Data are representative of three separate experiments. […]

[1] = system: NF-kB-dependent ELAM promoter; experiment: NF-kB-dependent ELAM promoter luciferase reporter in RAW 264.7 macrophages; assay type: cell-based, murine; settings: HMGB1 100 ng/ml or B box 10 μg/ml, 5 hours; for level of luciferase stimulation: co-transfected with MyD 88 dominant negative
Procedure: To examine the effects of HMGB1 or HMGB1 B Box on the NF-kB-dependent ELAM promoter, the following experiment was carried out. RAW 264.7 macrophages were transiently co-transfected with an expression plasmid encoding a murine MyD 88-dominant-negative (DN) mutant (corresponding to amino acids 146-296), or empty vector, plus a luciferase reporter plasmid under the control of the NF-kB-dependent ELAM promoter, as described by Means et al. (J. Immunol. 166:4074-4082, 2001). A portion of the cells were then stimulated with full-length HMBG1 (100 ng/ml), or purified HMGB1 B box (10 μg/ml), for 5 hours. Cells were then harvested and luciferase activity was measured, using standard methods. All transfections were performed in triplicate, repeated at least three times, and a single representative experiment is shown in FIG. 11B.

[2] = biological target: T1, human Toll-like receptor 4 (TLR4) (Homo sapiens, UniProt O00206); experiment: CD25 expression in CHO/TLR2 and CHO/TLR4 ELAM-CD25 reporter cells (flow cytometry); assay type: cell-based; settings: CHO/TLR4 cells versus CHO/TLR2; HMG-1 100 ng/ml or B box 10 μg/ml, 18 hours
T1 construct: expressed in transfected cells; host or cells: CHO (CHO/TLR4, ELAM-CD25 reporter)
Procedure: The effect of HMGB1 or HMGB1 B box on NF-kB activation was also examined. CHO reporter cell lines that constitutively express human Toll-like receptor 2 (TLR2) or Toll-like receptor 4 (TLR4) have been previously described (Means et al., J. Immunology, 163:3920-3927, 1999). These reporter lines also contain a stably transfected ELAM-CD25 reporter gene, and express human CD25 on their surface as a consequence of NF-kB activation. CHO/TLR2 and CHO/TLR4 cells were stimulated with IL-1 (10 ng/ml), purified full-length HMG-1 (100 ng/ml), or purified B box (10 μg/ml) for 18 hours. Following stimulation, cells were stained with a PE-labeled anti-CD25 monoclonal antibody and surface expression of CD25 was measured by flow cytometry. The results of this study are shown ib FIG. 11C. Data are expressed as the ratio (fold-activation) of the percent of CD25^+ cells in unstimulated and stimulated cell populations that were gated to exclude the lowest 5% of cells based on mean FL1 fluorescence.

T1 sequence (O00206 24-839): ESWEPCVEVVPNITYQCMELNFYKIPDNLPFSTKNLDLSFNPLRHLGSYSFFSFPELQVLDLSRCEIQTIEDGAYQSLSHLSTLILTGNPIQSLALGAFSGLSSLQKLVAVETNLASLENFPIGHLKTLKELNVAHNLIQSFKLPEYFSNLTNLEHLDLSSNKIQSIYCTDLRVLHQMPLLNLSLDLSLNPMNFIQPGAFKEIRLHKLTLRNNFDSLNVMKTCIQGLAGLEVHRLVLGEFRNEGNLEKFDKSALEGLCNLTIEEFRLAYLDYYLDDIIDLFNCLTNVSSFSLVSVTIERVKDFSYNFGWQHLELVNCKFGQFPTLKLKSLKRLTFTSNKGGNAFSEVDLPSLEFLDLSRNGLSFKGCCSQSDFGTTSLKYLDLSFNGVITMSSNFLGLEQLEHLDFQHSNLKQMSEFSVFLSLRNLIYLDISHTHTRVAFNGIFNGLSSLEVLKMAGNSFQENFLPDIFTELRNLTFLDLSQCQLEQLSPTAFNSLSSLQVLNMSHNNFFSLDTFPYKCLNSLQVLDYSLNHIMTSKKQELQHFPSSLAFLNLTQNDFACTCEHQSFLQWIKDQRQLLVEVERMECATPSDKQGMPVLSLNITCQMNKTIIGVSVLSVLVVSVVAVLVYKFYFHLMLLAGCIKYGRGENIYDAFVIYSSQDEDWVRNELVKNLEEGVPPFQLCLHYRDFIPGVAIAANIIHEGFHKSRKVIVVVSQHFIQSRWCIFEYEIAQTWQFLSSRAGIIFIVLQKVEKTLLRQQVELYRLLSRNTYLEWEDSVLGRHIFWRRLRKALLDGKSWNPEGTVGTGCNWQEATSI

Molecule	TNF release (RAW 264.7 cells; 8 hours)	TNF protein expression compared to medium only (RAW 264.7 cells; 10 μg/ml, 0-48 hours)	time of maximum TNF protein release (RAW 264.7 cells; 10 μg/ml, 0-48 hours)	TNF release, dose dependence (RAW 264.7 cells; B box 0-10 μg/ml, 8 hours)	level of luciferase stimulation [1]	CD25 expression [2]	luciferase activity ([1]; not co-transfected with MyD 88 dominant negative)
B box: Human HMGB1 mutant containing only the B box, SEQ ID NO:20 (protein) FKDPNAPKRLPSAFFLFCSEYRPKIKGEHPGLSIGDVAKKLGEMWNNTAADDKQPYEKKAAKLKEKYEKDIAAY	potent activator of monocyte TNF release	stimulated TNF protein expression	≤ 8 h	increased with increased amounts of B box	This effect was also observed	decreased CD25 expression compared to the CHO/TLR2 samples	
HMGB1: Recombinant full length human HMGB1, GST fusion system, SEQ ID NO:18; recombinant rat HMGB1 used in some experiments (protein, GST fusion, recombinant rat HMGB1 used in some experiments) MGKGDPKKPTGKMSSYAFFVQTCREEHKKKHPDASVNFSEFSKKCSERWKTMSAKEKGKFEDMAKADKARYEREMKTYIPPKGETKKKFKDPNAPKRLPSAFFLFCSEYRPKIKGEHPGLSIGDVAKKLGEMWNNTAADDKQPYEKKAAKLKEKYEKDIAAYRAKGKPDAAKKGVVKAEKSKKKKEEEEDEEDEEDEEEEEDEEDEEDEEEDDDDE	significantly stimulated TNF release				decreased	decreased CD25 expression compared to the CHO/TLR2 samples	stimulated luciferase activity
A box: Human HMGB1 mutant containing only the A box, SEQ ID NO:21 (A box SEQ ID NO:22) (protein) MGKGDPKKPTGKMSSYAFFVQTCREEHKKKHPDASVNFSEFSKKCSERWKTMSAKEKGKFEDMAKADKARYEREMKTYIPPKGET	only weakly activated TNF release						
